Entries after “also recorded” stand apart in the source; their conditions may differ. Read-outs that look alike come from different tables or passages of the source.
Columns and labels:
Type in all cases: in vivo, Aedes aegypti
[1] = tested on: Ae. aegypti larvae (Rockefeller and Rio de Janeiro strains); assay: Temephos larval susceptibility bioassay (WHO methodology)
Method: (§1) First (L1), Second (L2) or Third (L3) instar larvae were treated (in groups of 100 larvae) in a final volume of 3 mL of autoclaved water with sodium channel (AAEL008297), PgP (AAEL010379), Ago3 (AAEL007823), and Aub (AAEL007698) dsRNA (0.5 μg/μL), or AAEL005112, AAEL003446, AAEL007815 and AAEL002202 dsRNA (0.1 μg/μL). The control group was kept in 3 ml sterile water only. Larvae were soaked in the dsRNA solutions for 24 hours at 27° C., and were then transferred into new containers (200 larvae/1000 mL of chlorine-free tap water), which were also maintained at 27° C., and provided […] lab dog/cat diet (Purina Mills) suspended in water as a source of food on a daily basis. After soaking procedure, the larvae were reared until third instar and divided in […] with 10-20 larvae in each cup (final volume of 100 mL) or were divided immediately after soaking. Six replicas were treated with the lethal concentration 50 (0.00573 ppm) of temephos and 2 replicas with ethanol only (control group). Mortality was recorded after 24 and 48 hours. See Flowcharts 1 and 2 (FIGS. 1 and 2, respectively).
Susceptibility tests were carried out according to the methodology proposed by the World Health Organization (WHO). In order to characterize the status of Temephos resistance in Ae. aegypti (Rio de Janeiro) strain, the present inventors first determined the lethal concentration LC99 (concentration able to kill 99% of the larvae) using the susceptible strain (Rockfeller) (see FIG. 5: 0.01401 ppm). Then, bioassays with the Rio de Janeiro strain were performed using a diagnostic concentration of 0.0282 ppm of Temephos, which corresponded to twice the lethal concentration, 99% (LC99), determined for this susceptible strain. According to WHO, when the field population is treated with the diagnostic dose and the mortality rates are equal to or higher than 98%, the population is considered susceptible, between 80% and 98%, with alterations in susceptibility, and below 80%, resistant [WHO (1981) WHO/VBC/81.807]. […]

[2] = tested on: Ae. aegypti female mosquitoes (Rockefeller and Rio de Janeiro strains); assay: CDC bottle bioassay with deltamethrin, adult females; conditions: 2 μg/mL deltamethrin; for mortality at 2 µg/mL: Aedes aegypti, read-out: mortality at diagnostic dosage
Method: FIGS. 14A-C are graphs illustrating the dose-response curves for 3- to 5-day-old Aedes aegypti female mosquitoes on insecticide-susceptible Rockefeller strain (FIG. 14A) and on insecticide-resistant Rio de Janeiro strain (FIG. 14B). Mosquitoes were exposed to different concentrations of deltamethrin in 250-mL glass bottles for up to 24 hours and the percentage of mortality for each time point is shown. FIG. 14C, comparison of the mortality rates of female mosquitoes from Rockefeller (Rock) and Rio de Janeiro (RJ) strains exposed to 2 μg/mL of deltamethrin for different time-points. Data represent mean values of three replicates with standard deviation.
Bottles were prepared following the Brogdon and McAllister (1998) protocol [Brogdon and McAllister (1998) Emerg Infect Dis 4:605-613]. Fifteen-twenty non-blood-fed females from each site were introduced in 250 mL glass bottles impregnated with different concentrations of deltamethrin (Sigma-Aldrich) in 1 ml acetone. Each test consisted of four impregnated bottles and one control bottle. The control bottle contained acetone with no insecticide. At least three tests were conducted for each insecticide and population. Immediately prior to use, all insecticide solutions were prepared fresh from stock solutions. At 15, 30 and 45 min intervals, the number of live and dead mosquitoes in each bottle was recorded. The mortality criteria included mosquitoes with difficulties flying or standing on the bottle's surface. Mosquitoes that survived the appropriate dose for insecticide were considered to be resistant [Brogdon and McAllister (1998), supra].
Therefore, it was concluded that 36.05% of the mosquitoes in this population (RJ) are resistant to deltamethrin.

[3] = tested on: A. aegypti 3rd instar larvae, Rockefeller strain; assay: Larvae feeding with food-containing dsRNA and bioassay with diflubenzuron; conditions: diflubenzuron 2.5 μg/L
Method: FIG. 9A, 3rd instar larvae of Rockefeller strain were exposed to diflubenzuron (DBZ) pestanal larvicide (2.5 μg/L) in plastic cups containing 100 mL of dechlorinated tap water and fed simultaneously with dsRNA-containing food. Larval mortality was determined each 3 days. FIG. 9B, larvae were soaked with Sodium channel dsRNAs and exposed to diflubenzuron as described in FIG. 9A. Effects of diflubenzuron on adult emergence is shown as the percentage of emergence inhibition (100-100(T/C), where T is emergence (%) in DBZ-treated groups and C is emergence (%) in control groups. *p<0.01 (ANOVA, bar=S.D, n=4).
3rd instar larvae of Rockefeller strain were exposed to diflubenzuron (DBZ) pestanal larvicide (2.5 μg/L) in plastic cups containing 100 mL of dechlorinated tap water and fed simultaneously with dsRNA-containing food targeting PgP (FIG. 10A) or dsRNA-containing food targeting Sodium channel (FIG. 10B). Larval mortality was determined each 3 days. […]
Third instar larvae (in groups of 10 larvae) were exposed to one concentration (2.5 μg/L) of diflubenzuron pestanal (Sigma) in a final volume of 100 mL of chlorine-free tap water. […] The inhibition of emergence (%) was calculated according to the following formula: 100-100(T/C) where T is percent emergence in treated groups and C is percent emergence in control groups [Mulla et al. (1974) Proc. Papers Calif. […]

[4] = tested on: P-glycoprotein (AAEL010379) mRNA; assay: qPCR of P-glycoprotein mRNA after dsRNA treatment of larvae
Method: as §1
(§2) Approximately 1000 ng first-strand cDNA obtained as described previously was used as template. The qPCR reactions were performed using SYBR® Green PCR Master Mix (Applied Biosystems) following the manufacturer's instructions. […] Raw quantification cycle (Cq) values normalized against those of the tubulin and S7 standards were then used to calculate the relative expression levels in samples using the 2^−ΔΔCt method previously described [Livak & Schmittgen (2001) Methods. […]
(§3) Approximately 1000 ng first-strand cDNA obtained as described previously was used as template. […] Raw quantification cycle (Cq) values normalized against those of the tubulin and S7 standards were then used to calculate the relative expression levels in samples using the 2^−ΔΔCt method [Livak & Schmittgen, (2001) Methods. […]

[5] = tested on: Argonaute-3 (AAEL007823) mRNA; assay: qPCR of Ago-3 mRNA after dsRNA treatment of larvae
Method: as §1, §2, §3

[6] = 24 and 48 hours after end of 24 hour soaking of 3rd instar larvae
[7] = soaked as third instar larvae, reared until adult stage

Molecule: COP(=S)(OC)Oc1ccc(Sc2ccc(OP(=S)(OC)OC)cc2)cc1 [Temephos]
- mortality at 0.0282 ppm ([1]; Aedes aegypti, read-out: mortality at diagnostic concentration): 60%
- lethal concentration 50 ([1]; LC50 used to treat third instar larvae, strain not stated): 0.00573 ppm
- lethal concentration LC99 (concentration able to kill 99% of the larvae) ([1]; susceptible strain (Rockfeller)): 0.01401 ppm

Molecule: CC1(C)[C@H](C(=O)O[C@H](C#N)c2cccc(Oc3ccccc3)c2)[C@@H]1C=C(Br)Br [deltamethrin]
- mortality at 2 µg/mL ([2]; Rio de Janeiro strain): 64%
- mortality at 2 µg/mL ([2]; Rockfeller strain): 100%
- mosquitoes of the population resistant to deltamethrin ([2]; Rio de Janeiro (RJ) population): 36.05%

B1: P-glycoprotein dsRNA: dsRNA targeting Ae. aegypti P-glycoprotein gene AAEL010379, SEQ ID NO: 184 (nucleic acid)
chain: TGGAAAAGTTGACATTGACGGGATCACGACAACTGATTTCCAGCTTGGCCGCATACGTTCACAAATGGGTCTCGTATCGCAAGAACCTGTTCTGTTTGATCGCACCATCGCGGAAAATATTGCTTATGGTGACAACACTCGCGAGATAAGCATGCCGGAGATAATCGAGGCATCCAAAATGGCAAACATTCACGAATTCATCGTCAATCTACCGAAGGGGTATGACACTAGCCTAGGAACCAAAGGAGCTCAATTGTCTGGTGGCCAAAAGCAACGTATTGCTATAGCTCGTGCTTTGGTTAGAAATCCACGAATCC
modifications: double stranded RNA
- viability of mosquito larvae 4 days after treatment with DBZ (FIGS. 10A-B) ([3]; fed agarose cubes with 20 μg dsRNA once a day for 4 days): reduced significantly the viability of mosquito larvae
- susceptibility to diflubenzuron: larvae mortality and adult emergence (FIGS. 9A-B) ([3]; fed dsRNA-containing food simultaneously): increases its susceptibility to diflubenzuron insecticide
- PgP mRNA levels after the end of dsRNA treatment (FIG. 19A) [4, 6]: decreased mRNA levels
- P-glycoprotein mRNA expression by qPCR (FIG. 7) ([4]; larvae soaked 24 hours in dsRNA, temephos bioassay at third instar, versus water): induced gene silencing; also recorded: decrease in mRNA expression level
- PgP mRNA expression in adult mosquitoes (FIG. 20A) [4, 7]: reached normal levels

B2: Ago-3 dsRNA: dsRNA targeting Ae. aegypti Argonaute-3 gene AAEL007823, SEQ ID NO: 185 (nucleic acid)
chain: CCCCGTCGACGGCCACGAAGTTACGATCAAGATCATTTACAAGCGCAAACAGCGAATGAGCGAGAACATTCAATTCTACAACATTCTCTTCCAACGCATTATGAAAGTCCTGAAGATGGTCGAGATGGGTCGTAAGAACTTTGACCCCTCGGCCCCGAAACTGATTCCGCAGCATCGTCTGGAGATCTGGCCGGGATACGTTAGCGCTGTGGACGAATATGAGGGCGGCTTGATGTTGAATCTCGACGTGTCCCATCGTGTGCTGCTCCAGACGACGGTTTTGGATCACATCCGAACGCTGGCAAGGGCCAATCCCCAAGATTACAAAAACATGGCCACCAAATCGCTGCTGGGAGCCGTTATATTGACCCGA
modifications: double stranded RNA
- Ago3 mRNA levels after the end of dsRNA treatment (FIG. 19B) [5, 6]: decreased mRNA levels
- Ago-3 mRNA expression by qPCR (FIG. 8B) ([5]; RJ third instar larvae soaked 24 hours, after treatment with Temephos, versus water): induced gene silencing; also recorded: reduction in the mRNA levels
- Ago3 mRNA expression in adult mosquitoes (FIG. 20B) [5, 7]: reached normal levels

From patent publication US20170051285A1, “COMPOSITIONS AND METHODS OF USING SAME FOR REDUCING RESISTANCE TO MOSQUITO LARVICIDES” (priority 2014, published 2017)
